Measurements as given in paper PMC10987413.

Target: GST-DCL3 F5 (UniProt Q9LXW7)
Experiment: MST
Conditions: MST: 50 mM Tris-HCl pH 7.4, 150 mM NaCl, 10 mM MgCl2, 0.01% Tween 20, 100 nM RED-NHS labelled protein, incubation 5 min at room temperature (instrument printed …)

UniProt Q9LXW7, sequence (Q9LXW7 whole entry): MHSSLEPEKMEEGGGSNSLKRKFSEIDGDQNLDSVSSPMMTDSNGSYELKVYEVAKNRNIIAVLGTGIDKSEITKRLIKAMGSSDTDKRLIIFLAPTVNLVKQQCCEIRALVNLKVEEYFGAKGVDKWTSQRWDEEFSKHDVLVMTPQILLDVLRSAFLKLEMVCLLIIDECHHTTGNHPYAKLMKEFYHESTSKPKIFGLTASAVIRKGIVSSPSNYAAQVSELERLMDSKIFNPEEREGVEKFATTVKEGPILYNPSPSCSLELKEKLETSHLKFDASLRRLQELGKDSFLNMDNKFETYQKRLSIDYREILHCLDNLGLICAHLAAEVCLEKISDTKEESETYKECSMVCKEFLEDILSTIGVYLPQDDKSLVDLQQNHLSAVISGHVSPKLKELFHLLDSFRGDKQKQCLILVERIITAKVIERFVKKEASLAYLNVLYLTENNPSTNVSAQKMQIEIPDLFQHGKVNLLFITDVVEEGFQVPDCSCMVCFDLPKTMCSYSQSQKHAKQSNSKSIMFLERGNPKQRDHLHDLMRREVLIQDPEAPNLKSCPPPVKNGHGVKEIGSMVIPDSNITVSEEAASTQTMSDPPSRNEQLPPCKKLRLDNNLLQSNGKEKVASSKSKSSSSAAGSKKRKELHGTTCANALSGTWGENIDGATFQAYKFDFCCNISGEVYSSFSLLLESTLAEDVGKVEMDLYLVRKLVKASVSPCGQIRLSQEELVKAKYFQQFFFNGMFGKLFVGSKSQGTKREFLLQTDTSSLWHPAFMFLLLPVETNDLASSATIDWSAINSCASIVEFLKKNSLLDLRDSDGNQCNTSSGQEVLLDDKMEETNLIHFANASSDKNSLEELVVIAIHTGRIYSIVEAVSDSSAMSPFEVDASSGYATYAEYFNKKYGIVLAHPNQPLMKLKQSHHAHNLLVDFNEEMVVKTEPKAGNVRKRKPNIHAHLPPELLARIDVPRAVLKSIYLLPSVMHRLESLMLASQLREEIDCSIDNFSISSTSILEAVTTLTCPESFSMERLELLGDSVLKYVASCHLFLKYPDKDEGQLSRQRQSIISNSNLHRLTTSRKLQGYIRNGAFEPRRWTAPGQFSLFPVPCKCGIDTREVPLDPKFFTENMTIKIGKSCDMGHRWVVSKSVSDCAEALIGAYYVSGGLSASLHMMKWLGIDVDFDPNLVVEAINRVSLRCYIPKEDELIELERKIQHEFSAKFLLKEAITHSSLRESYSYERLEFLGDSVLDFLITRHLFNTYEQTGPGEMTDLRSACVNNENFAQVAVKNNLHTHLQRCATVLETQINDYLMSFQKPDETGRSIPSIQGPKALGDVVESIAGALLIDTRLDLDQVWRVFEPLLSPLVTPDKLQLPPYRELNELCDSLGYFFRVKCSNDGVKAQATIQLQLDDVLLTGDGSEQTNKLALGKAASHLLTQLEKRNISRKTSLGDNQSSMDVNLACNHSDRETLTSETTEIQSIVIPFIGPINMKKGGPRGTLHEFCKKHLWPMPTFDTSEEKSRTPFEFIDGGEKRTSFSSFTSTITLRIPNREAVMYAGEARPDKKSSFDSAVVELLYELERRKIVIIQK

Point of comparison: “UACAAGACACGUGCUGAAGUCAAGUUUGAGGGAACACCCUCGUCAACAGGAUCG / AUCCUGUUGACGAGGGUGUCUCCCUCAAACUUGACUUCAGCACGUGUCUUGUAGU [55-bp ds-sRNA]”, Kd 582 nM. Against it:
- UCAACAGGAUCGAGCUUAAGG / UUAAGCUCGAUCCUGUUGACG [21-bp ds-sRNA (ds siRGFP)] — within 1.5-fold, 575 nM
- AGAAUCUUGAUGAUGCUGCAU / GUGGCAUCAUCAAGAUUCACA [miR172a duplex] — 1.6-fold higher, 927 nM
- 55-nt ss-sRNA — 2-fold higher, 1160 nM
- UCGCUUGGUGCAGGUCGGGAA / CCCGCCUUGCAUCAACUGAAU [miR168a duplex] — 1.8-fold higher, 1060 nM
- 21-nt ss-sRNA — 3.2-fold higher, 1870 nM
- 24-nt ss-sRNA — 2.1-fold higher, 1220 nM
- UGAAUUUCUGGUAUGGGUCCCGCC / CGGGACCCAUACCAGAAAUUCAUC [24-bp ds-sRNA (dsAtSN1)] — within 1.5-fold, 553 nM
